# Publication PMC7904846, “Nanobody-based chimeric antigen receptor T cells designed by CRISPR/Cas9 technology for solid tumor immunotherapy” (Signal Transduction and Targeted Therapy, 2021)
# Molecular target: T1, CD105 (Homo sapiens, UniProt P17813)
# T1 construct: CD105 (endoglin), human; also called endoglin; CD105 protein
# Assay: SPR; CD105 Nbs (10 ug/mL) immobilised on PlexArray Nanocapture Sensor Chips; different concentrations injected at 3.0 uL/s; PlexArray HT system; regeneration with 0.05 mol/L NaOH; 25 °C; triplicate
# Details: both partners purified
# T1 sequence (P17813 26-658): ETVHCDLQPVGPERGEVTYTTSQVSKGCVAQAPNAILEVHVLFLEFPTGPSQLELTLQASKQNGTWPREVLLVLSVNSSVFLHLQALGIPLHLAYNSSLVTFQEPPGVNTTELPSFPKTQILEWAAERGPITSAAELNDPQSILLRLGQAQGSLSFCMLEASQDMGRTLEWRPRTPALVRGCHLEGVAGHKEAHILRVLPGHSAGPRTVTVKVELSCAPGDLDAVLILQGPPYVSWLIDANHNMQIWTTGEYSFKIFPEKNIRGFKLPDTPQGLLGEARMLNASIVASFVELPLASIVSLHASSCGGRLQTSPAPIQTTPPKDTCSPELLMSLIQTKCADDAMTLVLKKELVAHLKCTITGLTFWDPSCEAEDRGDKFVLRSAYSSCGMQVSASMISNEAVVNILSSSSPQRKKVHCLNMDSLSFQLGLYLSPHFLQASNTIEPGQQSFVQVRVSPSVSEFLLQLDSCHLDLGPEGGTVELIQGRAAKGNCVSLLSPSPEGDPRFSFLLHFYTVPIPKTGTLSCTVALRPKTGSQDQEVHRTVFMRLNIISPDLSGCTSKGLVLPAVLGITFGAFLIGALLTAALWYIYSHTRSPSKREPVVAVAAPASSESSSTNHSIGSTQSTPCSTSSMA
binder,measurement,value
"Nb C184 (VHH, camel VHH selected by phage display against CD105; Cloned in phagemid pMECS, which gives C-terminal hemagglutinin-His6-tagged Nbs; In the CAR the same VHH is joined to the CD8a hinge and transmembrane domain, 4-1BB and CD3zeta; also called anti-CD105 Nanobody (C184); CD105 Nb) VHH: QVQLQESGGGSVQAGGSLRLSCVASGYTVSRGYMGWFRQAPGKEREAVAAIRTGSGSTYYADSVKGRFTISQDNAKNTVYLQMNSLKHEDTGMYYCAASLWYGGNWQSWGSYNYWGQGTQVTVSS",binding result,binds
